Reference: the Human Domainome abundance scans (Beltran et al. 2025)
± gives the uncertainty stated by the source.

B1: POU domain, class 6, transcription factor 2, residues 609 to 663; numbered along this chain, P78424 (parent)
chain: KRRTSFTPQALEILNAHFEKNTHPSGQEMTEIAEKLNYDREVVRVWFCNKRQALK

Variants of: B1
Assay: abundance fitness (aPCA) (normalised: wild type 0, dead -1); higher = more abundant; growth selection in yeast, the domain comes from the species named
Conditions: Homo sapiens

Abundance fitness: each site, then its substitutions
Q9: Y -0.088 ± 0.3
A10: C -0.154 ± 0.23, D -0.015 ± 0.15, E 0.062 ± 0.14, F -0.538 ± 0.22, G -0.087 ± 0.12, K -0.587 ± 0.33, L -0.51 ± 0.13, M -0.206 ± 0.2, N -0.106 ± 0.28, Q -0.107 ± 0.17, R -0.904 ± 0.14, S -0.262 ± 0.15, V -0.227 ± 0.13, W -0.87 ± 0.27, Y -0.76 ± 0.29
L11: A -0.279 ± 0.1, C -0.409 ± 0.14, D -0.622 ± 0.25, E -0.002 ± 0.12, F -0.498 ± 0.24, G -0.477 ± 0.075, H -0.482 ± 0.24, M -0.092 ± 0.14, P -1.01 ± 0.24, Q -0.435 ± 0.16, R -0.222 ± 0.074, S -0.283 ± 0.1, V 0.053 ± 0.095, Y -0.339 ± 0.21
E12: A -0.401 ± 0.14, C -0.261 ± 0.15, D -0.002 ± 0.3, G -0.105 ± 0.11, K -0.695 ± 0.4, L -0.403 ± 0.11, M -0.222 ± 0.19, P -0.724 ± 0.18, Q -0.298 ± 0.28, R -0.107 ± 0.089, S -0.009 ± 0.12, V -0.331 ± 0.15, W -0.233 ± 0.16
I13: A -0.01 ± 0.12, C -0.113 ± 0.18, E -0.251 ± 0.21, F -0.113 ± 0.18, G -0.385 ± 0.099, H -0.172 ± 0.27, L -0.017 ± 0.13, M -0.218 ± 0.12, P -0.98 ± 0.31, Q -0.132 ± 0.22, S -0.279 ± 0.14, T -0.003 ± 0.19, W -0.219 ± 0.14, Y 0.002 ± 0.15
L14: A -0.969 ± 0.14, C -0.734 ± 0.19, D -0.972 ± 0.2, E -1.07 ± 0.19, F -0.877 ± 0.24, G -0.919 ± 0.08, H -0.788 ± 0.31, I -0.898 ± 0.23, K -0.874 ± 0.34, N -1.06 ± 0.34, P -0.852 ± 0.21, Q -0.819 ± 0.11, S -1.05 ± 0.14, T -0.936 ± 0.19, V -0.729 ± 0.089, W -1.03 ± 0.13, Y -0.878 ± 0.24
N15: A -0.247 ± 0.11, C -0.086 ± 0.13, D -0.093 ± 0.15, F -0.543 ± 0.33, H -0.085 ± 0.16, I -0.78 ± 0.38, K -0.13 ± 0.14, L -0.15 ± 0.093, M -0.132 ± 0.11, P -0.378 ± 0.23, Q -0.281 ± 0.11, R -0.217 ± 0.084, S -0.193 ± 0.12, T -0.217 ± 0.13, V -0.307 ± 0.087, W -0.361 ± 0.11, Y -0.615 ± 0.24
A16: C -0.164 ± 0.087, D 0.113 ± 0.094, E -0.002 ± 0.076, F -0.091 ± 0.1, G -0.049 ± 0.05, H 0.044 ± 0.17, I -0.183 ± 0.13, K -0.044 ± 0.1, L -0.054 ± 0.066, M 0.016 ± 0.09, N 0.02 ± 0.12, P -0.865 ± 0.21, Q 0.019 ± 0.12, R -0.084 ± 0.052, S -0.16 ± 0.073, V -0.078 ± 0.06, W -0.164 ± 0.065, Y -0.151 ± 0.12
H17: A -0.03 ± 0.067, C -0.063 ± 0.072, D -0.156 ± 0.09, E 0.064 ± 0.072, F -0.056 ± 0.098, G -0.369 ± 0.057, I -0.028 ± 0.12, K 0.04 ± 0.1, L -0.008 ± 0.058, M -0.028 ± 0.077, N -0.101 ± 0.15, P -0.961 ± 0.25, Q -0.002 ± 0.086, R -0.101 ± 0.057, S -0.065 ± 0.063, V -0.031 ± 0.054, W 0.011 ± 0.068, Y -0.065 ± 0.092
F18: C -0.522 ± 0.11, E -0.892 ± 0.11, G -0.848 ± 0.063, H -0.698 ± 0.2, I -0.562 ± 0.31, K -0.927 ± 0.19, M -0.76 ± 0.15, N -1.06 ± 0.26, P -1.07 ± 0.32, Q -0.937 ± 0.24, R -0.856 ± 0.074, S -0.593 ± 0.091, T -0.961 ± 0.21, V -0.713 ± 0.081, W -0.086 ± 0.071, Y 0.107 ± 0.15
E19: A 0.046 ± 0.074, C -0.085 ± 0.095, D -0.037 ± 0.11, F -0.288 ± 0.12, G -0.148 ± 0.056, H -0.092 ± 0.14, I 0.032 ± 0.1, L -0.057 ± 0.077, M -0.013 ± 0.11, N -0.07 ± 0.15, P -1.05 ± 0.24, Q -0.391 ± 0.18, R -0.05 ± 0.071, S 0.073 ± 0.072, W -0.127 ± 0.1
K20: A -0.064 ± 0.073, C -0.289 ± 0.086, D -0.291 ± 0.13, E -0.007 ± 0.099, F -0.421 ± 0.14, G -0.129 ± 0.061, H -0.239 ± 0.16, I -0.245 ± 0.14, L -0.144 ± 0.074, M -0.02 ± 0.13, N -0.227 ± 0.18, P -0.936 ± 0.16, Q -0.17 ± 0.13, R -0.017 ± 0.061, S -0.088 ± 0.075, T -0.057 ± 0.088, V -0.131 ± 0.074, W -0.303 ± 0.084, Y -0.224 ± 0.12
N21: A -0.198 ± 0.08, C -0.008 ± 0.1, D -0.153 ± 0.092, E -0.016 ± 0.11, F -0.659 ± 0.12, H -0.182 ± 0.1, I -0.351 ± 0.18, K -0.303 ± 0.13, L -0.551 ± 0.071, M -0.421 ± 0.14, P -0.987 ± 0.33, Q -0.044 ± 0.15, R -0.274 ± 0.064, S -0.17 ± 0.08, T -0.173 ± 0.1, V -0.335 ± 0.068, W -0.67 ± 0.09, Y -0.36 ± 0.13
T22: A 0.006 ± 0.092, D -0.037 ± 0.12, E -0.098 ± 0.19, F -0.198 ± 0.13, G 0.002 ± 0.067, H 0.134 ± 0.14, I -0.103 ± 0.11, K -0.089 ± 0.11, L -0.017 ± 0.077, M -0.022 ± 0.13, N 0.049 ± 0.12, P 0.016 ± 0.1, Q 0.084 ± 0.14, R 0.005 ± 0.065, S 0.003 ± 0.073, V 0.105 ± 0.11, W -0.176 ± 0.073, Y -0.201 ± 0.13
H23: A -0.062 ± 0.094, C 0.018 ± 0.089, E 0.072 ± 0.11, F -0.096 ± 0.14, G -0.217 ± 0.063, I -0.169 ± 0.2, K -0.034 ± 0.12, M -0.275 ± 0.15, N -0.027 ± 0.16, P -1.1 ± 0.41, Q -0.029 ± 0.13, R 0.011 ± 0.07, S 0.036 ± 0.12, V -0.086 ± 0.074, W -0.124 ± 0.11, Y -0.257 ± 0.15
P24: A -0.497 ± 0.068, C -0.462 ± 0.1, D -0.792 ± 0.12, E -0.978 ± 0.11, F -0.916 ± 0.14, H -0.905 ± 0.17, I -0.21 ± 0.1, K -1.1 ± 0.15, L -0.394 ± 0.064, M -0.327 ± 0.074, N -0.96 ± 0.24, Q -0.741 ± 0.14, R -0.909 ± 0.068, T -0.641 ± 0.11, V -0.386 ± 0.058, W -0.317 ± 0.067, Y -0.805 ± 0.15
S25: A -0.185 ± 0.12, C -0.232 ± 0.16, D -0.17 ± 0.18, E -0.383 ± 0.2, F -0.515 ± 0.18, G -0.051 ± 0.098, H 0.073 ± 0.26, I -0.355 ± 0.17, L -0.213 ± 0.098, M -0.313 ± 0.27, N -0.073 ± 0.19, Q -0.313 ± 0.25, R -0.125 ± 0.092, T 0.003 ± 0.17, V -0.207 ± 0.098, W -0.92 ± 0.21, Y -0.872 ± 0.24
G26: A 0.035 ± 0.11, C -0.027 ± 0.13, E 0.119 ± 0.13, F -0.173 ± 0.21, I -0.02 ± 0.18, K -0.114 ± 0.14, L -0.054 ± 0.1, M -0.078 ± 0.15, N -0.041 ± 0.46, P -0.004 ± 0.18, Q -0.415 ± 0.23, R -0.032 ± 0.08, S -0.08 ± 0.12, T 0.03 ± 0.17, V 0.073 ± 0.097, W 0.119 ± 0.1
Q27: A -0.063 ± 0.097, D 0.25 ± 0.15, E 0.05 ± 0.11, F -0.737 ± 0.41, G -0.063 ± 0.066, H 0.243 ± 0.25, I 0.091 ± 0.16, K 0.131 ± 0.15, L 0.064 ± 0.085, M -0.39 ± 0.16, N -0.106 ± 0.18, P -0.005 ± 0.17, R 0.012 ± 0.068, S -0.071 ± 0.084, T 0.022 ± 0.11, V -0.091 ± 0.075, W -0.142 ± 0.086, Y -0.315 ± 0.2
E28: A -0.157 ± 0.14, C -0.324 ± 0.12, D -0.047 ± 0.23, F -0.17 ± 0.22, G -0.592 ± 0.087, I -0.02 ± 0.2, K -0.072 ± 0.37, M -0.595 ± 0.3, N -0.313 ± 0.13, P -0.998 ± 0.27, Q -0.171 ± 0.29, R -0.175 ± 0.091, S -0.321 ± 0.088, T -0.088 ± 0.14, V -0.094 ± 0.11, W -0.692 ± 0.15, Y -0.113 ± 0.3
T30: A -0.046 ± 0.28, E -0.259 ± 0.22, G -0.128 ± 0.12, H -0.061 ± 0.25, I -0.088 ± 0.22, K -0.176 ± 0.33, L -0.216 ± 0.19, M 0.102 ± 0.28, N -0.177 ± 0.4, P -0.692 ± 0.22, Q -0.119 ± 0.4, R -0.119 ± 0.11, S -0.232 ± 0.17, W -0.393 ± 0.16, Y -0.25 ± 0.18
E31: A -0.114 ± 0.19, C -0.424 ± 0.23, D -0.077 ± 0.22, G -0.041 ± 0.095, I -0.534 ± 0.24
